# Laboratory results taken from patent US20200085871A1.
# Where “and” joins values, the source holds several entries; their conditions need not be identical. Equal values may be shown once.
# Target: mouse CD19 on B cells (mouse) (UniProt P25918)
# Test: cell-based or functional assay
# Chain of UniProt P25918 (P25918 19-547): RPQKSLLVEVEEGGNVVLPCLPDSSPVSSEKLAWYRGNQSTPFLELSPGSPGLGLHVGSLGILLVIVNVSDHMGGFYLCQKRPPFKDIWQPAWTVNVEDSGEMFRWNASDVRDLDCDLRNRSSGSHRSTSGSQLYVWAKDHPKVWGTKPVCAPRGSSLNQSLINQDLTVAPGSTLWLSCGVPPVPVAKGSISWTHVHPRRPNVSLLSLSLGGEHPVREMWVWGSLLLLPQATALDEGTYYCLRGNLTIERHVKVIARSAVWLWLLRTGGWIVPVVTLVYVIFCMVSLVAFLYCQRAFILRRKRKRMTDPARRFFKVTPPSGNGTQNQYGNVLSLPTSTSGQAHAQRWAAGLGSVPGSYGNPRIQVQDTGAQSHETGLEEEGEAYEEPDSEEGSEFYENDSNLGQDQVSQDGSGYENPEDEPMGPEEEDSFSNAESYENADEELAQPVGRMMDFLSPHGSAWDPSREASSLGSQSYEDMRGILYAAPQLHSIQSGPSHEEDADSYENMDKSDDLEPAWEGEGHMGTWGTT
substance,measurement,value
"anti-CD19-28Z.1-3 CAR (1D3 anti-mouse CD19 chimeric antigen receptor), expressed on transduced mouse CD8+ cytotoxic T cells (from UniProt P31041 115-218; P24161 52-164)",percent CD19+ B cells remaining in CAR T-treated MRL/lpr mice (flow cytometry),0.05% and 0.14%
